Experimental findings from PMC8844075, “Structural basis of neuropeptide Y signaling through Y1 receptor” (Nature Communications, 2022) are described below.

Chain of Y1R-eYFP (wild-type Y1R) (human) (P25929 whole entry): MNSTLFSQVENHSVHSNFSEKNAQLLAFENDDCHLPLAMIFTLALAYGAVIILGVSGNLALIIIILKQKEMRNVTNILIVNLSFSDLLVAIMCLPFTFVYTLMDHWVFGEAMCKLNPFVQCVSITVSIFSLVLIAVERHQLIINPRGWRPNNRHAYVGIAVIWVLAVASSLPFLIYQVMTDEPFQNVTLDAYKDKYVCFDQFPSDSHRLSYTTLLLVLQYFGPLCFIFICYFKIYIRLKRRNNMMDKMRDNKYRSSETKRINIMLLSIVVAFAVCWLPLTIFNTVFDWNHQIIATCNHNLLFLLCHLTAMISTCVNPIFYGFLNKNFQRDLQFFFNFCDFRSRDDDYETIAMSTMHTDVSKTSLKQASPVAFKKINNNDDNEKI
Chain of peptide YY (PYY) (P10082 29-64): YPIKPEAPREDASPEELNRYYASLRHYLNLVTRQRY
Chain of PYY(3–36) (P10082 31-64): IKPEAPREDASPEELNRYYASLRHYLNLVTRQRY

This assay concerns the target Y1R-eYFP (wild-type Y1R) (human) (UniProt P25929).
Substance “NPY(3–36) (from UniProt P01303 31-64) (peptide)” came in with a Ca2+ signalling assay in HEK293T cells, EC50 of 86 nM.

“peptide YY (PYY) (from UniProt P10082 29-64)” showed a Ca2+ signalling assay in HEK293T cells, EC50 of 6.1 nM. The result for “PYY(3–36) (from UniProt P10082 31-64) (peptide)” reads 77 nM.
